Reference: patent publication US20100144634A1 (published 2010)

What was measured:
[1] = biological target: B-domainless derivative of human factor VIII, FVIII-SQ, P00451
[2] = biological target: T1, human factor VIII derivative lacking the entire B domain and acidic region a3 (741-1689), FVIII-2RKR, P00451
T1 chain 1: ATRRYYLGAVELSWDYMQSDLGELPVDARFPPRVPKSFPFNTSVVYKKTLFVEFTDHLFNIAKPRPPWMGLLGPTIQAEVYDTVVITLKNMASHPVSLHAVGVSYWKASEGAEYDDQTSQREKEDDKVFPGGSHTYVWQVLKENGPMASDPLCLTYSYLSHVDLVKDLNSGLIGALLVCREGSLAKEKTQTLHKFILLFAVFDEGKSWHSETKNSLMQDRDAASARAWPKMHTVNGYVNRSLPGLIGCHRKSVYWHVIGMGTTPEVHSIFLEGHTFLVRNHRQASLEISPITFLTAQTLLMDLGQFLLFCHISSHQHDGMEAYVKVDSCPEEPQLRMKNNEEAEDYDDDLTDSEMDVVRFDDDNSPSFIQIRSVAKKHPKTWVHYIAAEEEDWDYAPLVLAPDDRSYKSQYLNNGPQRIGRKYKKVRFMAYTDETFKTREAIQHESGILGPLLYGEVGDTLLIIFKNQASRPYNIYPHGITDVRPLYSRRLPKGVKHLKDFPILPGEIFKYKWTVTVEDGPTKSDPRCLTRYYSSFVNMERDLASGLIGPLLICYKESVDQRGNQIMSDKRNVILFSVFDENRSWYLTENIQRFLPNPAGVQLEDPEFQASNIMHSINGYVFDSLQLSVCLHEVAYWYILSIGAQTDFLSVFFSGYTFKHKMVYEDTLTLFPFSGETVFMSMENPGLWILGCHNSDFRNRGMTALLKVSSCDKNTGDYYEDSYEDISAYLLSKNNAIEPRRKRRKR
T1 chain 2: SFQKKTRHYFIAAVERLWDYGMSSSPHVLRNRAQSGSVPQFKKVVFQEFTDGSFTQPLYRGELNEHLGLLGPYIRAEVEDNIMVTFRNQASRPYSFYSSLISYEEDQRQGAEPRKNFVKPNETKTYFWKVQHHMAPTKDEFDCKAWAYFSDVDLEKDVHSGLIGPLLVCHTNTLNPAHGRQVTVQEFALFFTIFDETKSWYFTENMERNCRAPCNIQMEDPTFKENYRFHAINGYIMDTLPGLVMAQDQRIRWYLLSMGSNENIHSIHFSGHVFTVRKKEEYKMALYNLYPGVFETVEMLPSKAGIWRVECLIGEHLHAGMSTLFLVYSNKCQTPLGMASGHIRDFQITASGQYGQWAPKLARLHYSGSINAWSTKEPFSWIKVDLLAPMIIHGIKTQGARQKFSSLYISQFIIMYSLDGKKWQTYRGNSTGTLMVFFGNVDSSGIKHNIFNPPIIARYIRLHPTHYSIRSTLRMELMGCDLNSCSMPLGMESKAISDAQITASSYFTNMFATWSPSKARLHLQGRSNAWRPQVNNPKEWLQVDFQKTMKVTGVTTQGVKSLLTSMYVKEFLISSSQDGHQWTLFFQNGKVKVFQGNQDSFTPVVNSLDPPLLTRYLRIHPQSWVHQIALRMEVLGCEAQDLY

[3] = biological target: recombinant human full-length coagulation factor VIII, P00451
[4] = biological target: T2, von Willebrand factor pre-denatured with 1.5 M guanidine-HCl at 37 C for two hours (UniProt P04275 764-2813); test: SPR (BIAcore), guanidine-HCl denatured VWF injected over immobilised FL-A13, equilibrium fit
T2 construct: mature; Same polypeptide as m1; also called VWF**; denatured VWF

[5] = biological target: T3, von Willebrand factor (VWF), purified plasma-derived, multimeric, native (UniProt P04275 764-2813); test: SPR (BIAcore), VWF injected under flow over FL-A13 immobilised on CM5, equilibrium fit, no EDTA
T3 construct: mature; human is implied; also called pvWF; plasma VWF
Procedure: Briefly, the surface of a carboxymethylated dextran (CM5) chip was activated by injection of 35 μl mixture (1:1, vol:vol) of 0.4 M 1-ethyl-3-(3-dimethylaminopropyl) carbodiimide and 0.1 M N-hydroxysuccinimide according to manufacturer's instruction (BIAcore, Uppsala, Sweden). Approximately 2,000 to 8,000 response units (RU) (2˜10 ng/mm²) of purified recombinant proteins were covalently attached onto the activated CM5 chip surface. The control surface was activated similarly, but blocked by same amount of BSA (Sigma, St. Louis, Mo.). The reactive groups on the dextran surface were blocked by injection of 35 μl of 1 M ethanolamine (pH 8.5) at flow rate of 5 μl per min for 7 min. Then, purified plasma VWF at various concentrations (0-250 μg/ml or 0-1,000 nM as in FIG. 3; 0-125 μg/ml or 0-500 nM as in FIG. 4) in 10 mM HEPES, 150 mM NaCl, pH 7.5 containing 0.005% Tween 20 and 2 mg/ml BSA (HBS-T) were injected and passed over the surface at injection rate 10 to 100 μl/min or 20 μl/min for 3-5 min. […] The dissociation constants, KD (S) at the equilibrium were determined by fitting the data from the binding isotherm using a non-linear regression curve on the PRISM4 software (GraphPad Software, Inc., San Diego, Calif.). […]

[6] = biological target: T3, von Willebrand factor (VWF), purified …; test: SPR (BIAcore), VWF injected under flow over immobilised FL-A13, equilibrium fit, in the presence of 10 mM EDTA
Procedure: Approximately 2,000 to 8,000 response units (RU) (2˜10 ng/mm²) of purified recombinant proteins were covalently attached onto the activated CM5 chip surface. The control surface was activated similarly, but blocked by same amount of BSA (Sigma, St. Louis, Mo.). The reactive groups on the dextran surface were blocked by injection of 35 μl of 1 M ethanolamine (pH 8.5) at flow rate of 5 μl per min for 7 min. Then, purified plasma VWF at various concentrations (0-250 μg/ml or 0-1,000 nM as in FIG. 3; 0-125 μg/ml or 0-500 nM as in FIG. 4) in 10 mM HEPES, 150 mM NaCl, pH 7.5 containing 0.005% Tween 20 and 2 mg/ml BSA (HBS-T) were injected and passed over the surface at injection rate 10 to 100 μl/min or 20 μl/min for 3-5 min. The HBS-T replaced the protein solution and continued to flow for approximately 4 min; further washing with HBS-T for 20-30 min regenerated the surfaces prior to the next injection. The dissociation constants, KD (S) at the equilibrium were determined by fitting the data from the binding isotherm using a non-linear regression curve on the PRISM4 software (GraphPad Software, Inc., San Diego, Calif.).
Fitting the data directly using BIAcore evaluation software, although it is relatively easy, may overestimate the binding affinity between VWF and ADAMTS13 due to the heterogeneity of VWF molecules. […]

B1: full-length ADAMTS13, recombinant, C-terminal V5-His (enzyme, UniProt Q76LX8 75-1427, looked up, not shown: small tags and cut ends)
chain: AAGGILHLELLVAVGPDVFQAHQEDTERYVLTNLNIGAELLRDPSLGAQFRVHLVKMVILTEPEGAPNITANLTSSLLSVCGWSQTINPEDDTDPGHADLVLYITRFDLELPDGNRQVRGVTQLGGACSPTWSCLITEDTGFDLGVTIAHEIGHSFGLEHDGAPGSGCGPSGHVMASDGAAPRAGLAWSPCSRRQLLSLLSAGRARCVWDPPRPQPGSAGHPPDAQPGLYYSANEQCRVAFGPKAVACTFAREHLDMCQALSCHTDPLDQSSCSRLLVPLLDGTECGVEKWCSKGRCRSLVELTPIAAVHGRWSSWGPRSPCSRSCGGGVVTRRRQCNNPRPAFGGRACVGADLQAEMCNTQACEKTQLEFMSQQCARTDGQPLRSSPGGASFYHWGAAVPHSQGDALCRHMCRAIGESFIMKRGDSFLDGTRCMPSGPREDGTLSLCVSGSCRTFGCDGRMDSQQVWDRCQVCGGDNSTCSPRKGSFTAGRAREYVTFLTVTPNLTSVYIANHRPLFTHLAVRIGGRYVVAGKMSISPNTTYPSLLEDGRVEYRVALTEDRLPRLEEIRIWGPLQEDADIQVYRRYGEEYGNLTRPDITFTYFQPKPRQAWVWAAVRGPCSVSCGAGLRWVNYSCLDQARKELVETVQCQGSQQPPAWPEACVLEPCPPYWAVGDFGPCSASCGGGLRERPVRCVEAQGSLLKTLPPARCRAGAQQPAVALETCNPQPCPARWEVSEPSSCTSAGGAGLALENETCVPGADGLEAPVTEGPGSVDEKLPAPEPCVGMSCPPGWGHLDATSAGEKAPSPWGSIRTGAQAAHVWTPAAGSCSVSCGRGLMELRFLCMDSALRVPVQEELCGLASKPGSRREVCQAVPCPARWQYKLAACSVSCGRGVVRRILYCARAHGEDDGEEILLDTQCQGLPRPEPQEACSLEPCPPRWKVMSLGPCSASCGLGTARRSVACVQLDQGQDVEVDEAACAALVRPEASVPCLIADCTYRWHVGTWMECSVSCGDGIQRRRDTCLGPQAQAPVPADFCQHLPKPVTVRGCWAGPCVGQGTPSLVPHEEAAAPGRTTATPAGASLEWSQARGLLFSPAPQPRRLLPGPQENSVQSSACGRQHLEPTGTIDMRGPGQADCAVAIGRPLGEVVTLRVLESSLNCSAGDMLLLWGRLTWRKMCRKLLDMTFSSKTNTLVVRQRCGRPGGGVLLRYGSQLAPETFYRECDMQLFGPWGEIVSPSLSPATSNAGGCRLFINVAPHARIAIHALATNMGAGTEGANASYILIRDTHSLRTTAFHGQQVLYWESESSQAEMEFSEGFLKAQASLRGQYWTLQSWVPEMQDPQSWKGKEGT
notes: mature; also called FL-A13; FL-AD13
increase of the initial rate of cleavage of FRETS-vWF73 and GST-vWF73 by ADAMTS13 [1]: by a factor of 2 or 3
increase of the initial rate of cleavage of FRETS-vWF73 and GST-vWF73 by ADAMTS13 [2]: by a factor of 2 or 3
increase of the initial rate of cleavage of FRETS-vWF73 and GST-vWF73 by ADAMTS13 [3]: by a factor of 2 or 3
Kd [4]: 83 nM
Kd [5]: 50 nM
Kd [6]: 77 nM
